Measurements from patent publication US11649460B2, “DNA aptamers, method for inhibiting human galectin-1 and method of treating a mammal in need thereof” (priority 2020, dated 2023).

Key:
[1] = tested on: MCF-7 human breast adenocarcinoma cell line; test: SRB cell proliferation (cytotoxicity) assay, MCF-7
Description: (§1) The XLSTAT software was used to determine the IC50, TGI and LC50 values using the four-parameter logistic curve equation.

[2] = tested on: HT-29 human colorectal adenocarcinoma; test: SRB cell proliferation (cytotoxicity) assay, HT-29
Description: as §1

[3] = tested on: HCT 116 human colorectal carcinoma; test: SRB cell proliferation (cytotoxicity) assay, HCT 116
Description: as §1

[4] = tested on: SK-BR-3 human breast adenocarcinoma; test: SRB cell proliferation (cytotoxicity) assay, SK-BR-3
Description: as §1

[5] = tested on: OVCAR-3 human ovarian adenocarcinoma cell line; test: SRB cell proliferation (cytotoxicity) assay, OVCAR-3
Description: as §1

[6] = target: T1, native human galectin-1 (hGal1) (Homo sapiens, UniProt P09382); test: Thermofluor thermal shift assay (TSA), native galectin-1; type: binding; conditions: 5 μM protein
T1 construct: 42; made in house; host or cells: E. coli strain M-15
T1 sequence (P09382 2-135): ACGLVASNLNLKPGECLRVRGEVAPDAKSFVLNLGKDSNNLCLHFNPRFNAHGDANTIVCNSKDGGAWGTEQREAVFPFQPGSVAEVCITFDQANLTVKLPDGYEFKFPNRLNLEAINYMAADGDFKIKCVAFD
In short: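 Purified native or alkylated hGal1 (5 μM) was incubated 30 min with increasing aptamer SEQ ID NO.: 4 concentrations in PBS 1× with 5× SYPRO Orange. Samples were heated 25–95 °C at 1 °C/min, and melting temperature was derived from the fluorescence denaturation curves.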

[7] = target: T2, human galectin-1 (hGal1) (Homo sapiens, UniProt P09382); test: Tryptophan fluorescence quenching (Stern-Volmer); type: binding; conditions: Stern-Volmer fit; 5 μM hGal1, aptamer 0 to 7.2 μM; read-out: apparent dissociation constant
T2 construct: 42; made in house; host or cells: E. coli strain M-15
T2 sequence (P09382 2-135): as above
Experimental: Fluorescence measurements were taken by a spectrofluorimeter HITACHI F-4500, the spectra were collected by excitation and emission at a rate of 240 nm per min, using a 5 nm slit widths and recorded at room temperature. A total of 5 μM hGal1 solution was incubated for 10 hours with aptamer aliquots as quencher, from 0 to 7.2 μM, in PBS 1× buffer. The spectra were obtained between 300-450 nm after excitation at 295 nm and all buffer contributions were corrected for measurements. As previously described, the log of fluorescence quenching was evaluated by plotting it versus log of aptamer concentration. The Stern-Volmer equation was used to estimate the number of interacting sites (n) and the apparent kD.
Human galectin-1 tryptophan residue has an emission peak at 348 nm after […] exited. SEQ ID NO.: 4 promotes changes the fluorescence spectrum of Trp68, which is the sole Trp in the subunit of hGal1 and is one of the residues constituting its CRD. Upon the aptamer addition, fluorescence emission decreased (FIG. 1C). The fluorescence quenching log versus aptamer concentration log measurements was plotted and it was fitted with Stern-volmer equation. The best fit established apparent dissociation constant of approximately 31.9 nM and a binding site of 1.5 (FIG. 1D).

[8] = target: T3, alkylated Gal1 (Homo sapiens, UniProt P09382); test: Hemagglutination inhibition assay, alkylated Gal1; type: cell-based; conditions: alkylated Gal1 5 μM
T3 construct: 42; made in house; host or cells: E. coli strain M-15
T3 sequence (P09382 2-135): as above
Experimental: FIG. 15 illustrates the hemagglutination test with constant protein concentration at 5 μM and titration of aptamers SEQ ID NO.: 4 and SEQ ID NO.: 9. (a) Titration with aptamer 4. The hemagglutination of native Gal1 was inhibited from the concentration of 10 μM of this compound.
Hemagglutination assay was adopted to assess the capacity of SEQ ID NO.: 4 in inhibiting the lectin cross-linking aggregation of red blood cells (RBC), as previously described. Briefly, using a 96-well microplates appropriate amounts of 5 μM hGal1 were blended with 50 μL of aptamer in an increasing concentrations manner (0-40 μM) in PBS 1× buffer (pH 7.4). Following, 50 μL of 3% purified type B+ RBC in PBS. After 2 h of room temperature incubation, the plate was photographed and the hemagglutination area was estimated by area calculator Sketchandcalc™ and the results were expressed as relative agglutination.
It was observed that treating hGal-1 with Iodoacetamide, which covalently binds the acetamide group in all solvent accessible cysteines sulfhydryl side chain, abolishes the anti-hemagglutinating activity of the aptamer. According to the proposed binding mode, this happens because Cysteines 2, 88 and 130 interact directly with the aptamer and adding the acetamide group to their side chains would disrupt specific aptamer-protein interactions (FIG. 13C).

[9] = tested on: OVCAR-3 cell line; test: Synergism test with cisplatin, OVCAR-3; conditions: aptamer 12.5 μM associated with cisplatin 3 μM
Description: For the analysis of cell proliferation, the non-clonogenic method of sulforodamine B (SRB) was used, a protein dye that binds to the basic amino acid residues of cell proteins that were viable at the time of the fixation process. Therefore, the greater the amount of SRB bound per compartment, the less the antiproliferative activity of the item under study.

B1: CTGACACAGCAGGTTGGTGCCAACTAACACCATAAGAATACCCCGCTCCAAATAAGCCCACACGTAAACCCGAGTCGAGCAATCTCGAAAT (nucleic acid)
DNA: CTGACACAGCAGGTTGGTGCCAACTAACACCATAAGAATACCCCGCTCCAAATAAGCCCACACGTAAACCCGAGTCGAGCAATCTCGAAAT
modifications: chemistry not given here
notes: DNA aptamer that recognizes human galectin-1
With B1 the “Relative viability (%) of test items” value ([1]; 0.781 µM) was 110.4%, the “Relative viability (%) of test items” value ([1]; 1.562 µM) was 96.7% and the “Relative viability (%) of test items” value ([1]; 3.125 µM) was 95.8%. For the same molecule, the “Relative viability (%) of test items” value ([1]; 6.25 µM) was 86.2%, the “Relative viability (%) of test items” value ([1]; 12.5 µM) was 72.7% and the “Relative viability (%) of test items” value ([1]; 25 µM) was 60.9%. The “Relative viability (%) of test items” value ([1]; 50 µM) was 43.4%, the “Relative viability (%) of test items” value ([1]; 100 µM) was 0.7% and the “TGI: Concentration for total inhibition of cell growth” value ([1]; MCF-7) was over 100 µM. For the same molecule, the IC50 ([1]; read-out: IC50: Concentration to inhibit 50% of cell growth, MCF-7) was 35.1 µM, the CC50 ([1]; read-out: LC50: Concentration for 50% cell death, MCF-7) was over 100 µM and the “Relative cell viability (%) of test items” value (“Relative cell viability (%)” below) ([2]; 0.781 µM) was 93.5%. For the same molecule, the “Relative cell viability (%)” value ([2]; 1.562 µM) was 90.7%, the “Relative cell viability (%)” value ([2]; 3.125 µM) was 88.6% and the “Relative cell viability (%)” value ([2]; 6.25 µM) was 74.6%. The “Relative cell viability (%)” value ([2]; 12.5 µM) was 47.4%, the “Relative cell viability (%)” value ([2]; 25 µM) was 5.8% and the “Relative cell viability (%)” value ([2]; 50 µM) was −84.0%. The “Relative cell viability (%)” value ([2]; 100 µM) was −61.1%, the “TGI: Concentration for total inhibition of cell growth” value ([2]; HT-29) was 22.932 µM and the IC50 ([2]; read-out: IC50: Concentration to inhibit 50% of cell growth, HT-29) was 13.5 µM. The CC50 ([2]; read-out: LC50: Concentration for 50% cell death, HT-29) was 40.9 µM, the “Relative cell viability (%)” value ([3]; 0.781 µM) was 103.6% and the “Relative cell viability (%)” value ([3]; 1.562 µM) was 95.4%. For the same molecule, the “Relative cell viability (%)” value ([3]; 3.125 µM) was 85.5%, the “Relative cell viability (%)” value ([3]; 6.25 µM) was 85.0% and the “Relative cell viability (%)” value ([3]; 12.5 µM) was 57.1%. For the same molecule, the “Relative cell viability (%)” value ([3]; 25 µM) was 24.4%, the “Relative cell viability (%)” value ([3]; 50 µM) was 3.6% and the “Relative cell viability (%)” value ([3]; 100 µM) was −70.2%. The “TGI: Concentration for total inhibition of cell growth” value ([3]; HCT 116) was 45.410 µM, the IC50 ([3]; read-out: IC50: Concentration to inhibit 50% of cell growth, HCT 116) was 16.8 µM and the CC50 ([3]; read-out: LC50: Concentration for 50% cell death, HCT 116) was 84.4 µM. For the same molecule, the “Relative cell viability (%)” value ([4]; 0.781 µM) was 101.9%, the “Relative cell viability (%)” value ([4]; 1.562 µM) was 103.4% and the “Relative cell viability (%)” value ([4]; 3.125 µM) was 98.6%. The “Relative cell viability (%)” value ([4]; 6.25 µM) was 106.2%, the “Relative cell viability (%)” value ([4]; 12.5 µM) was 96.1% and the “Relative cell viability (%)” value ([4]; 25 µM) was 47.0%. For the same molecule, the “Relative cell viability (%)” value ([4]; 50 µM) was −34.6%, the “Relative cell viability (%)” value ([4]; 100 µM) was −86.3% and the “TGI: Concentration for total inhibition of cell growth” value ([4]; SK-BR-3) was 37.515 µM. For the same molecule, the IC50 ([4]; read-out: IC50: Concentration to inhibit 50% of cell growth, SK-BR-3) was 25 µM, the CC50 ([4]; read-out: LC50: Concentration for 50% cell death, SK-BR-3) was 56.9 µM and the “Relative viability (%) of test items” value ([5]; 0.781 µM) was 99.6%. The “Relative viability (%) of test items” value ([5]; 1.562 µM) was 93.9%, the “Relative viability (%) of test items” value ([5]; 3.125 µM) was 89.4% and the “Relative viability (%) of test items” value ([5]; 6.25 µM) was 67.2%. For the same molecule, the “Relative viability (%) of test items” value ([5]; 25 µM) was 37.7%, the “Relative viability (%) of test items” value ([5]; 50 µM) was −14.6% and the “Relative viability (%) of test items” value ([5]; 100 µM) was −68.1%. The “TGI: Concentration for total inhibition of cell growth” value ([5]; OVCAR-3) was 41.931 µM, the IC50 ([5]; read-out: IC50: Concentration to inhibit 50% of cell growth, OVCAR-3) was 14.2 µM and the CC50 ([5]; read-out: LC50: Concentration for 50% cell death, OVCAR-3) was 82.4 µM. For the same molecule, the “variation of denaturation temperature (Tm) of native hGal1” value [6] was “greater variation”, the “variation of denaturation temperature (Tm) of native hGal1” value ([6]; listed as SEQ ID NO.: 4) was “marked decrease in Tm” and the Kd [7] was about 0.0319 µM. The “effect on hemagglutination by alkylated Gal1” value [8] was “no observed effect” and the “decrease of cell viability versus cisplatin alone” value [9] was about 60%.
